Measured values taken from patent US20220363757A1 (SYMPHOGEN A S, published 2022).
Where a chain is given by its changes, count along the chain named. Values belong to the binder of their own block, whether it stands above or below them.

Assays:
Assay in all cases: SPR, Fab over captured mutant LAG-3-Fc;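 also: fc fusion variants captured on anti-human IgG Fc sensor, Fab injected with association then dissociation phases, KD obtained from Langmuir one-to-one fit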
[1] = molecular target: T1, human LAG-3 domain 1-2 Fc fusion, point mutation #35 A88S (human, UniProt P18627 23-266)
T1 construct: not shown: human IgG1 Fc, AA P101-K330
T1 sequence: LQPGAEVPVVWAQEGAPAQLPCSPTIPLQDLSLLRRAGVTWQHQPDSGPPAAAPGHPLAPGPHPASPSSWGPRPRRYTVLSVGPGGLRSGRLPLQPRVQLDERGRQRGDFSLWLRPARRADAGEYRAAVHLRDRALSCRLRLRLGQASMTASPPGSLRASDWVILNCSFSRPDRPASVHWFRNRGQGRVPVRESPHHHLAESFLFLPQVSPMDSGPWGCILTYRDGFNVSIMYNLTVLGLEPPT

[2] = molecular target: T2, human LAG-3 domain 1-2 Fc fusion, point mutation #44 R97A (human, UniProt P18627 23-266)
T2 construct: not shown: human IgG1 Fc, AA P101-K330
T2 sequence: T1 sequence with S66A, R75A

[3] = molecular target: T3, human LAG-3 domain 1-2 Fc fusion, point mutation #61 R119A (human, UniProt P18627 23-266)
T3 construct: not shown: human IgG1 Fc, AA P101-K330
T3 sequence: T1 sequence with S66A, R97A

[4] = molecular target: T4, human LAG-3 domain 1-2 Fc fusion, point mutation #45 R98A (human, UniProt P18627 23-266)
T4 construct: not shown: human IgG1 Fc, AA P101-K330
T4 sequence: T1 sequence with S66A, R76A

[5] = molecular target: T5, human LAG-3 domain 1-2 Fc fusion, point mutation #64 E124A (human, UniProt P18627 23-266)
T5 construct: not shown: human IgG1 Fc, AA P101-K330
T5 sequence: T1 sequence with S66A, E102A

[6] = molecular target: T6, human LAG-3 domain 1-2 Fc fusion, point mutation #24 G77A (human, UniProt P18627 23-266)
T6 construct: not shown: human IgG1 Fc, AA P101-K330
T6 sequence: T1 sequence with G55A, S66A

[7] = molecular target: T7, human LAG-3 domain 1-2 Fc fusion, point mutation #57 R113A (human, UniProt P18627 23-266)
T7 construct: not shown: human IgG1 Fc, AA P101-K330
T7 sequence: T1 sequence with S66A, R91A

[8] = molecular target: T8, human LAG-3 domain 1-2 Fc fusion, point mutation #46 Y99A (human, UniProt P18627 23-266)
T8 construct: not shown: human IgG1 Fc, AA P101-K330
T8 sequence: T1 sequence with S66A, Y77A

[9] = molecular target: T9, human LAG-3 domain 1-2 Fc fusion, point mutation #51 G107A (human, UniProt P18627 23-266)
T9 construct: not shown: human IgG1 Fc, AA P101-K330
T9 sequence: T1 sequence with S66A, G85A

KD mutant/KD wild type [1]: 0.6 fold | KD mutant/KD wild type [2]: 0.6 fold | binding result [3]: no binding (tested: 300 nM) | KD mutant/KD wild type [4]: 0.9 fold | binding result [5]: no binding (tested: 300 nM) | KD mutant/KD wild type [6]: 0.7 fold | KD mutant/KD wild type [7]: 0.7 fold | binding result [8]: no binding (tested: 300 nM) | binding result [9]: no binding (tested: 300 nM)
B1: Fab fragment of antibody 15572 (Fab, V domains shown, not shown: a dimerising Fc or GST)
VH: QLQLQESGPGLVKPSETLSLTCTVSGDSISSSSYYWGWIRQPPGKGLEWIGSIFYSGNTYYNPSLKSRVTISVDTSKNQFSLKLSSVTAADTAVYYCAREDDFLTDYYGAFDIWGQGTMVTVSS
VL: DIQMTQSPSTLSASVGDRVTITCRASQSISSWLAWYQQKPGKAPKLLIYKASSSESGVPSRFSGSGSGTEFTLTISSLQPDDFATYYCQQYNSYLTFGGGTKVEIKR
notes: monomeric Fab made by GingisKHAN digestion of the IgG1

KD mutant/KD wild type [1]: 0.9 fold | KD mutant/KD wild type [2]: 0.7 fold | KD mutant/KD wild type [3]: 0.6 fold | KD mutant/KD wild type [4]: 1.2 fold | KD mutant/KD wild type [5]: 0.8 fold | KD mutant/KD wild type [6]: 0.8 fold | KD mutant/KD wild type [7]: 3.3 fold | KD mutant/KD wild type [8]: 0.5 fold | KD mutant/KD wild type [9]: 5.7 fold
B2: Fab fragment of antibody 15011 (Fab, V domains shown, not shown: a dimerising Fc or GST)
VH: EVQLLESGGGLVQPGGSLRLSCAASGFDFRSYAMMWVRQAPGKGLEWVGGINGEVGGSNTYYAPAVKGRATISRDNSKNTLYLQMNSLRAEDTAVYYCVKGAGACGICNDDIDAWGQGTLVTVSS
VL: SYELTQDPAVSVALGQTVRITCSGAGSYAGSYYYGWHQQKPGQAPVTVIYDNDKRPSNIPDRFSGSSSGNTASLTITGAQAEDEADYYCGSTNDNDDGGLFGSGTKVTVLG
notes: as for B1

KD mutant/KD wild type [1]: 3.7 fold | KD mutant/KD wild type [2]: 0.9 fold | KD mutant/KD wild type [3]: 3.2 fold | KD mutant/KD wild type [4]: 1.6 fold | KD mutant/KD wild type [5]: 1.8 fold | KD mutant/KD wild type [6]: 1 fold | KD mutant/KD wild type [7]: 0.6 fold | KD mutant/KD wild type [8]: 4.1 fold | KD mutant/KD wild type [9]: 2.1 fold
B3: Fab fragment of antibody 15532 (Fab, V domains shown, not shown: a dimerising Fc or GST)
VH: QVQLQQWGAGLLRPSETLSLTCAVYGESFSGYYWNWIRQPPGKGLEWIGEINHSGSTNYNPSLKSRVTISVDTSKTQFSLKLSSVTAADTAVYYCARGWDLLDWNDYWNEYWGQGTLVTVSS
VL: EIVLTQSPATLSLSPGERATLSCRASQSVSSYLAWYQQKPGQAPRLLIYDASNRATGIPARFSGSGSGTDFTLTISSLEPEDFAVYYCQQRSNWPLTFGGGTKVEIKR
notes: as for B1

KD mutant/KD wild type [1]: 0.6 fold | KD mutant/KD wild type [2]: 1.3 fold | binding result [3]: no binding (tested: 300 nM) | binding result [4]: no binding (tested: 300 nM) | binding result [5]: no binding (tested: 300 nM) | KD mutant/KD wild type [6]: 0.7 fold | KD mutant/KD wild type [7]: 0.9 fold | binding result [8]: no binding (tested: 300 nM) | binding result [9]: no binding (tested: 300 nM)
B4: Fab fragment of antibody 15431 (Fab, V domains shown, not shown: a dimerising Fc or GST)
VH: QVQLQQSGPGLVKPSQTLSLTCAISGDSVSSNSAAWNWIRQSPSRGLEWLGRTYYRSKWYNDYAVSVKSRITINPDTSKNQFSLQLNSVTPEDTAVYYCARDDDWNDFDYWGQGTLVTVSS
VL: B3 VL
notes: as for B1
